{
  "source": "patent US10660969B2",
  "about": "“Eight-arm polyethylene glycol derivative, production method therefor, and modified bio-related substance thereof” (priority 2015, dated 2020)",
  "key": {"[1]": {"conditions": "nude mouse", "excerpt": "The nude mouse model was used to evaluate the maximum tolerated dose of each group. When the body weight of a nude mouse decreased by 20%, the death/survival was monitored and counted."}, "Mouse hepatoma H22 cells": {"system": "Mouse hepatoma H22 cells", "test": "Anti-tumor effect in transplanted tumor model", "assay_type": "in vivo, mice", "conditions": "H22 subcutaneous tumor; tumors weighed two weeks after transplantation", "protocol": "An animal model of transplanted tumor was used. Mouse hepatoma H22 cells were transplanted subcutaneously into the right axillary region of mice to form solid tumors. After transplantation for 2 days and 7 days, drugs were administered intravenously via the tail vein as a single dose. Two weeks after transplantation, the mice were sacrificed by cervical dislocation, and the tumors were isolated and weighed."}, "[2]": {"test": "Pharmacokinetics in tumor-free SD rats (HPLC, non-compartmental model)", "assay_type": "in vivo, Adult SD rats", "conditions": "single dose of 25 mg/kg, within 7 days", "protocol": "Tumor-free Adult SD rats were administrated a single dose of 25 mg/kg, and four rats were used for each experimental point. The rats were sacrificed at different time points within 7 days, and the concentrations of pegylated irinotecan and its metabolite SN38 were measured and analyzed by HPLC. The analysis of pharmacokinetics was carried out by using a non-compartmental model."}},
  "data": [
    {"smiles": "CCOC(=O)CC(CN)(CC(=O)OCC)CC(=O)OCC", "note": "[Example T8, 8arm-PEG-Gly-IRES]", "values": [
      {"measurement": "maximum tolerated dose, ranking between groups", "setting": "[1]", "value": "the lowest"},
      {"measurement": "tumor-inhibition ratio, ranking between groups", "setting": "Mouse hepatoma H22 cells", "value": "the highest tumor-inhibition ratio"},
      {"measurement": "apparent elimination half-life of the metabolite SN38, ranking between groups", "setting": "[2]", "value": "the longest apparent elimination half-life"}
    ]}
  ]
}
